Experimental findings from publication PMC4479010 are described below.

The experiment addresses GFP monomer (GFP 11 linked to the N terminus of GFP 1–10), net charge −3 [GFP: P42212]. Nature of the experiment: PAGE with 0.1% SDS + SEC; GFP oligomer mixture; SEC on Superdex 200 10/300 GL, 0.5 ml/min, 500 mM NaCl, 50 mM Tris pH 8.0 or PBS.

Regarding “GFP monomer (GFP 11 linked to the N terminus of GFP 1–10), net charge −3 (from UniProt P42212 215-230; P42212 1-214) (designed binder)”, the percent of expressed monomers polymerized to oligomers above the dimer is 50%.
